Common to all, as to details: pH 7.0, 37°C, potassium phosphate
Substrate in data set [1]: O=[N+]([O-])c1ccc(O[C@@H]2O[C@H](CO)[C@@H](O[C@@H]3O[C@H](CO)[C@@H](O)[C@H](O)[C@H]3O)[C@H](O)[C@H]2O)cc1
As to the kind of experiment: purified protein. The data set is classed as biochemical, Paenibacillus relictisesami.

Substrate in data set [2]: O=[N+]([O-])c1ccc(O[C@@H]2OC[C@@H](O)[C@H](O)[C@H]2O)cc1
As to the kind of experiment: purified protein. The format is biochemical, Paenibacillus relictisesami.

Substrate in data set [3]: OC[C@H]1O[C@@H](OC[C@H]2O[C@@H](Oc3cc4c(cc3[C@H]3OC[C@H]5[C@@H]3CO[C@@H]5c3ccc5c(c3)OCO5)OCO4)[C@H](O[C@@H]3O[C@H](CO)[C@@H](O)[C@H](O)[C@H]3O)[C@@H](O)[C@@H]2O)[C@H](O)[C@@H](O)[C@@H]1O
As to the kind of experiment: HPLC of STG hydrolysis, initial velocities. The format is biochemical, Paenibacillus relictisesami. The method, then: HPLC of STG hydrolysis, initial velocities on rPSTG (recombinant PSTG, STG-hydrolyzing β-glucosidase) | k cat and K m values of rPSTG for hydrolysis of STG were determined

Substrate in data set [4]: O=[N+]([O-])c1ccc(O[C@@H]2O[C@H](CO)[C@@H](O)[C@H](O)[C@H]2O)cc1
As to the kind of experiment: purified protein.

Substrate in data set [5]: O=[N+]([O-])c1ccc(O[C@@H]2O[C@H](CO)[C@H](O)[C@H](O)[C@H]2O)cc1
Put plainly: purified protein.

B1: rPSTG (recombinant PSTG, STG-hydrolyzing β-glucosidase) (Paenibacillus relictisesami) (protein)
chain: MSERRDLKALISQMTLEEKASLCTGRDTWHTQPIERLGIPSVMMTDGPHGLRKQKAASDHLGLFDSVPSTCFPSAVGVASSWNRDLIERMGQALGKECQAENVAVLLGPGANIKRSPLCGRNFEYFSEDPYLSSEMAAHHIMGVQSQGVGTSLKHFAANNQEYRRMTSDSVVNERTLREIYLTSFEGAVKKARPWTVMCSYNKVNGEYAAENERLLTGILKQEWGHEGFVVSDWGAVNDRVKSLAAGLELEMPHEGAGTKQIIEAVESGQLAEEKLDLAVERLLTVIFRSVDQHKEGAVYDPEAHHKLAREIAAESMVLLKNEDRILPLKREGTIAVIGELAKVPRYQGSGSSQIKPTRLDDIVFELAASAGEHARVTYTQGYDLKSDDINAVLTEEALQAAKEASVAVLFAGLPKRYESEGFDRKHMRMPDNQIALIEAVAAVQPNLVVVLCNGAPIEMPWLPQAKAVLEAYLGGQALGGAIADLLFGDANPSGKLAETFPVQLSDNPSFLNFPGEGDRVEYREGLFVGYRYYDKKQLRPLFPFGHGLSYTTFAYSNLSVDKKEILDTETLKVCVNVKNTGERAGKEIVQLYVRDVESSVIRPLKELKGFDKVFLAPGEEKTLTFELGKRSFAYYDPSIKDWMVETGAFEILIGRSSQDIVLAETVMVRSTVSRKIVYHRNSTVADLMLTEKGAAFAQKLRGMIPFGETVGEEYAEMLEAFKESVPLRGLISFSAGRFTEEDLSKLLEYLNG
notes: full-length 753 aa, 83,298 Da, no signal peptide; expressed from pDEST17 in E. coli BL21-AI, HisTrap purified (tag cleavage not mentioned); likely tetramer, 310 kDa; GH3
For orientation: Km means the concentration of substrate that gives half-maximal velocity. By kcat is commonly meant the maximal rate divided by the concentration of active sites. One may read the kcat/Km as the second-order rate constant that governs catalysis at low substrate concentration. For the protein B1, the Km in data set [1] came to 230 ± 40 µM; in data set [2], 35700 ± 12200 µM; in data set [3], 1400 ± 400 µM; in data set [4], 100 ± 10 µM; in data set [5], 29000 ± 7000 µM. In addition, the turnover number (kcat) in data set [1] was found to be 0.47 ± 0.03 s⁻¹; in data set [2], 69 s⁻¹; in data set [3] it was 9.3 ± 0.8 s⁻¹; in data set [4], 44.3 s⁻¹; in data set [5] it was 2.06 s⁻¹. For the same protein, the kcat/Km in data set [1] came out at 2040 M⁻¹ s⁻¹; in data set [2], 1930 M⁻¹ s⁻¹; in data set [4], 426000 M⁻¹ s⁻¹; in data set [5], 71 M⁻¹ s⁻¹.

The values above are taken from article PMC3622683, “Purification, Gene Cloning, and Biochemical Characterization of a β-Glucosidase Capable of Hydrolyzing Sesaminol Triglucoside from Paenibacillus sp. KB0549” (PLoS ONE, 2013).
